First the molecules themselves.
B1: c-Myc-tagged wild-type XAP2 [human] / ERα, transfected in HeLa cells [not stated] (parent)
chain 1: MADIIARLREDGIQKRVIQEGRGELPDFQDGTKATFHYRTLHSDDEGTVLDDSRARGKPMELIIGKKFKLPVWETIVCTMREGEIAQFLCDIKHVVLYPLVAKSLRNIAVGKDPLEGQRHCCGVAQMREHSSLGHADLDALQQNPQPLIFHMEMLKVESPGTYQQDPWAMTDEEKAKAVPLIHQEGNRLYREGHVKEAAAKYYDAIACLKNLQMKEQPGSPEWIQLDQQITPLLLNYCQCKLVVEEYYEVLDHCSSILNKYDDNVKAYFKRGKAHAAVWNAQEAQADFAKVLELDPALAPVVSRELRALEARIRQKDEEDKARFRGIFSH
chain 2: MTMTLHTKASGMALLHQIQGNELEPLNRPQLKIPLERPLGEVYLDSSKPAVYNYPEGAAYEFNAAAAANAQVYGQTGLPYGPGSEAAAFGSNGLGGFPPLNSVSPSPLMLLHPPPQLSPFLQPHGQQVPYYLENEPSGYTVREAGPPAFYRPNSDNRRQGGRERLASTNDKGSMAMESAKETRYCAVCNDYASGYHYGVWSCEGCKAFFKRSIQGHNDYMCPATNQCTIDKNRRKSCQACRLRKCYEVGMMKGGIRKDRRGGRMLKHKRQRDDGEGRGEVGSAGDMRAANLWPSPLMIKRSKKNSLALSLTADQMVSALLDAEPPILYSEYDPTRPFSEASMMGLLTNLADRELVHMINWAKRVPGFVDLTLHDQVHLLECAWLEILMIGLVWRSMEHPGKLLFAPNLLLDRNQGKCVEGMVEIFDMLLATSSRFRMMNLQGEEFVCLKSIILLNSGVYTFLSSTLKSLEEKDHIHRVLDKITDTLIHLMAKAGLTLQQQHQRLAQLLLILSHIRHMSNKGMEHLYSMKCKNVVPLYDLLLEMLDAHRLHAPTSRGGASVEETDQSHLATAGSTSSHSLQKYYITGEAEGFPATV

The variants in the assay derive from B1. The assay is described as follows: co-immunoprecipitation (IP with ERα antibody, Western blot with c-Myc antibody, band densitometry). As to conditions: 24 h after transfection. For orientation: Immunoblotting shows a protein as a band on a membrane.
The mark [1] stands for this setting: 10 nM E2 for 1 h, parent: 1, read off a plot.
The mark [2] stands for this setting: DMSO (veh) for 1 h, parent: 0.9, read off a plot.

As for chain 1 MADIIARLREDGIQKRVIQEGRGELPDFQDGTKATFHYRTLHSDDEGTVLDDSRARGKPMELIIGKKFKLPVWETIVCTMREGEIAQFLCDIKHVVLYPLVAKSLRNIAVGKDPLEGQRHCCGVAQMREHSSLGHADLDALQQNPQPLIFHMEMLKVESPGTYQQDPWAMTDEEKAKAVPLIHQEGNRLYREGHVKEAAAKYYDAIACLKNLQMKEQPGSPEWIQLDQQITPLLLNYCQCKLVVEEYYEVLDHCSSILNKYDDNVKAYFKWGKAHAAVWNAQEAQADFAKVLELDPALAPVVSRELRALEARIRQKDEEDKARFRGIFSH [chain 1 R271W], the ratio to parent by setting is: under setting [1], 0.68; under setting [2], 0.85.
On the same counts, the results for chain 1 MADIIARLREDGIQKRVIQEGRGELPDFQDGTKATFHYRTLHSDDEGTMLDDSRARGKPMELIIGKKFKLPVWETIVCTMREGEIAQFLCDIKHVVLYPLVAKSLRNIAVGKDPLEGQRHCCGVAQMREHSSLGHADLDALQQNPQPLIFHMEMLKVESPGTYQQDPWAMTDEEKAKAVPLIHQEGNRLYREGHVKEAAAKYYDAIACLKNLQMKEQPGSPEWIQLDQQITPLLLNYCQCKLVVEEYYEVLDHCSSILNKYDDNVKAYFKRGKAHAAVWNAQEAQADFAKVLELDPALAPVVSRELRALEARIRQKDEEDKARFRGIFSH [chain 1 V49M] are 0.97 and 0.85.

The record behind these values is article PMC3184960.
